The values that follow come from patent US8394929B2, “Nogo receptor-mediated blockade of axonal growth” (Yale University, priority 2000, dated 2013).

For data set [1], the system named is dorsal root ganglion neurons. Description: Cell survival in GST-Nogo-treated DRG cultures. The class given is cell-based, chick. The text has this:
The nanomolar potency is on a par with most known physiologic regulators of axon guidance.

Data set [2] concerns the target T1, wild-type NgR (wtNgR) (Mus musculus, UniProt Q99PI8).
T1 construct: expressed in transfected cells; host or cells: chick E7 retinal ganglion cell explants infected with recombinant HSV
T1 sequence (Q99PI8 27-447): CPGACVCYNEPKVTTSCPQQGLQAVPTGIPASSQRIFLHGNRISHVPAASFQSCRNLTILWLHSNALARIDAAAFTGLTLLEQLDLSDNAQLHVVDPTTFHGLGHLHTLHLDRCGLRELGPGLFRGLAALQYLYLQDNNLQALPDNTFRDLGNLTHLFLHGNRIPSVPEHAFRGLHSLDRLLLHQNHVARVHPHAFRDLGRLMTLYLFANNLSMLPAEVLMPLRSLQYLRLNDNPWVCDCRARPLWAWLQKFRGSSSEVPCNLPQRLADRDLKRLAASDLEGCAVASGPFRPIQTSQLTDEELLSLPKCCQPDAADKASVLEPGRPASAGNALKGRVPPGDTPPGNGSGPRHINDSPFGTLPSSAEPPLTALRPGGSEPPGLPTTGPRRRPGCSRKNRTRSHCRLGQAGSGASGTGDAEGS
The experiment in a line: Growth cone collapse in E7 retinal ganglion cells infected with HSV wild-type NgR. The class given is cell-based. Here is the method:
Both dorsal root ganglion and retinal neurons from E7 chick embryos were examined. The Nogo responses in the dorsal root ganglion neurons from this developmental stage are weak but slight responses can be detected in some cultures (data not shown).
(§1) Because the mouse NgRCT domain was determined to be dispensable for hNogo-A (1055-1120) binding, the ability of NgRΔCT to mediate Nogo-dependent inhibition was examined. HSVNgR constructs transfected into HEK293T cells mediated the expression of mNgR proteins of the predicted molecular weight, as determined by SDS-PAGE and anti-Myc and anti-NgR immunoblotting (FIG. 19A). Day E7 chick retinal ganglion cells (RGCs) were grown for 12 hr, then further incubated for 24 hr with HSVNgR preparations. Explants were fixed with 4% paraformaldehyde with 0.1 M PO4 and 20% sucrose and stained with phalloidin or with anti-myc antibodies. HSVNgR protein expression was detected in axons of infected (RGC) cultures (FIG. 19B).
(§2) Growth cone collapse in response to GST-hNogo-A (1055-1120) was investigated in infected RGC cultures. Retinal explants infected with recombinant viral preparations of PlexinA1 (PlexA1), wild-type NgR (wtNgR), NgRL1 chimeric receptor in which the GPI domain has been replaced by the transmembrane region and cytoplasmic tail from the mouse adhesion protein L1 (NgRL1), or NgR carboxy terminal deletion mutant (NgRΔCT) for 12 hr. […]

Data set [3] concerns the target T2, NgR carboxy terminal deletion mutant (NgRΔCT) (Mus musculus, UniProt Q99PI8).
T2 construct: expressed in transfected cells; host or cells: chick E7 retinal ganglion cell explants infected with recombinant HSV
T2 sequence (Q99PI8 with tags, fused parts or gaps): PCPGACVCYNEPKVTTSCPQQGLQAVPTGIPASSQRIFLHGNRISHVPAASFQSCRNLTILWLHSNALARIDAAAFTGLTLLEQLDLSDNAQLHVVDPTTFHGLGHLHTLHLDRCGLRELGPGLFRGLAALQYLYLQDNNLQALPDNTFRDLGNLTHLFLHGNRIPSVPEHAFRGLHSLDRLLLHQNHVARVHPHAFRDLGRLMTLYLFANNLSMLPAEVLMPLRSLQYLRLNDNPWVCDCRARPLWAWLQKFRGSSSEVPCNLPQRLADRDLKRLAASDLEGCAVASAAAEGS
The experiment in a line: Growth cone collapse in E7 retinal ganglion cells infected with NgRΔCT. It counts as cell-based. The method, then: as §1
as §2, with “hr. Following infection, the cells were treated for 30 min with 0, 50, 250, or 500 nM GST-hNogo-A (1055-1120) (GrandPre et al., Nature 403: 439-444, 2000), fixed with 4% paraformaldehyde with 0.1 M PO4 and 20% sucrose, and stained with phalloidin.” for “hr.”

Data set [4] concerns the target T3, mouse NgR (Mus musculus, UniProt Q99PI8).
T3 construct: expressed in transfected cells; host or cells: COS-7
T3 sequence (Q99PI8 27-473): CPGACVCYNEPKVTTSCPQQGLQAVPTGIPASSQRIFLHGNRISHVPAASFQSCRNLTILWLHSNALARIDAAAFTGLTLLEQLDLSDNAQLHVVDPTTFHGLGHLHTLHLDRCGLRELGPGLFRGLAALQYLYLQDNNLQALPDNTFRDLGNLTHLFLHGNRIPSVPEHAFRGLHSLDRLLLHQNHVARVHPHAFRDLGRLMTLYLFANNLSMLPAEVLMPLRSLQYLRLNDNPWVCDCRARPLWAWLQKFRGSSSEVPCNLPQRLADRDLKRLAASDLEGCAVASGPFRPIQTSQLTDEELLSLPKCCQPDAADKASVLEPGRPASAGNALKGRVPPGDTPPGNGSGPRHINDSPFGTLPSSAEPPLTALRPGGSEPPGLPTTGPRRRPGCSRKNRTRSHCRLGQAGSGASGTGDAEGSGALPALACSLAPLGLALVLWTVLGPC
The experiment in a line: AP-fusion protein binding to COS-7 cells expressing mouse NgR.

Data set [5] has as its target T3, mouse NgR. The data set is described as above. The method, then:
To determine if AP-fused deletion mutants of Nogo-66 bind mouse NgR (“mNgR”), COS-7 cells were transfected with a plasmid encoding the mouse NgR sequence ligated into pcDNA3.1. 48 hours after transfection, cells were washed with HBH (Hanks balanced salt solution containing 20 mM sodium Hepes, pH 7.05, and 1 mg ml^−1 bovine serum albumin) and then incubated with condition medium containing one of the AP-fusion proteins described above for 2 hours at 37° C. Cells were then washed, fixed, and left in HBH at 67° C. for 14-16 h to inactivate endogenous AP. AP-fusion protein binding to NgR expressing COS-7 cells was detected with the substrates NBT and BCIP (FIG. 13b).
To determine whether mNgR or mNgR deletion mutants bound to hNogo-A (1055-1120), wtNgR or mNgR deletion mutants were transfected into COS-7 cells. Forty-eight hours after the transfection, the transfected COS-7 cells were washed with hanks balanced salt solution containing 20 mM sodium HEPES, pH 7.05, and 1 mg/ml bovine serum albumin (BSA) [hereinafter “HBH”]. Cells were then incubated for 2 hours at 23° C. with a conditioned medium enriched with purified AP-hNogo-A (1055-1120) diluted in HBH. AP-fusion protein was detected as previously described for AP-Sema3A (Takahashi et al., Nature Neurosci. 1:487-493, 1998).
The source holds these as a separate data set.

Where two headings read alike, the source gives them in different places.

B1: GST-Nogo: GST fusion protein of the 66 amino acid lumenal-extracellular fragment of Nogo-A, expressed in E. coli (protein)
chain: RIYKGVIQAIQKSDEGHPFRAYLESEVAISEELVQKYSNSALGHVNCTIKELRRLFLVDDLVDSLK
modifications: also: GST fusion protein
notes: GST fusion protein of the 66 amino acid lumenal-extracellular fragment of Nogo-A, expressed in E. coli
With B1, in data set [1], the “number of neurofilament-positive adherent cells” value is reported as 137±24 % of GST-treated cultures. Further, in data set [1] (GST-Nogo-treated specimens), the “apoptotic nuclei identified by DAPI staining” value was determined as 5.2±1.1%. Moreover, the “growth cone collapse response (in words)” value in data set [2] (listed as GST-hNogo-A (1055-1120)) is reported as “underwent growth cone collapse”; in data set [2] (listed as Nogo-66), “sensitive to Nogo-66-induced collapse”; in data set [3], “insensitive”. For the same molecule, the “displacement of AP-Nogo (in words)” value in data set [4] is “displaces AP-Nogo”.

B2: NgR-ecto: secreted fragment of amino acid residues 1-348 of the murine NgR, in HEK293T conditioned medium (protein)
chain: CPGACVCYNEPKVTTSCPQQGLQAVPTGIPASSQRIFLHGNRISHVPAASFQSCRNLTILWLHSNALARIDAAAFTGLTLLEQLDLSDNAQLHVVDPTTFHGLGHLHTLHLDRCGLRELGPGLFRGLAALQYLYLQDNNLQALPDNTFRDLGNLTHLFLHGNRIPSVPEHAFRGLHSLDRLLLHQNHVARVHPHAFRDLGRLMTLYLFANNLSMLPAEVLMPLRSLQYLRLNDNPWVCDCRARPLWAWLQKFRGSSSEVPCNLPQRLADRDLKRLAASDLEGCAVASGPFRPIQTSQLTDEELLSLPKCCQPDAADKASVLE
modifications: left off: small tags and cut ends
notes: secreted fragment of amino acid residues 1-348 of the murine NgR, in HEK293T conditioned medium
For B2, the “reduction of binding of AP-Nogo-66” value in data set [4] (0.5 nM AP-Nogo-66, NgR-ecto conditioned medium, COS-7 cells expressing full length NgR) was determined as 80%.

B3: AP-Nogo: fusion protein of His6 tag, placental alkaline phosphatase (AP) and the 66 amino acid active domain of Nogo (protein)
chain: HHHHHHIIPVEEENPDFWNREAAEALGAAKKLQPAQTAAKNLIIFLGDGMGVSTVTAARILKGQKKDKLGPEIPLAMDRFPYVALSKTYNVDKHVPDSGATATAYLCGVKGNFQTIGLSAAARFNQCNTTRGNEVISVMNRAKKAGKSVGVVTTTRVQHASPAGTYAHTVNRNWYSDADVPASARQEGCQDIATQLISNMDIDVILGGGRKYMFRMGTPDPEYPDDYSQGGTRLDGKNLVQEWLAKRQGARYVWNRTELMQASLDPSVTHLMGLFEPGDMKYEIHRDSTLDPSLMEMTEAALRLLSRNPRGFFLFVEGGRIDHGHHESRAYRALTETIMFDDAIERAGQLTSEEDTLSLVTADHSHVFSFGGYPLRGSSIFGLAPGKARDRKAYTVLLYGNGPGYVLKDGARPDVTESESGSPEYRQQSAVPLDEETHAGEDVAVFARGPQAHLVHGVQEQTFIAHVMAFAACLEPYTACDLAPPAGTTDAAHPGRIYKGVIQAIQKSDEGHPFRAYLESEVAISEELVQKYSNSALGHVNCTIKELRRLFLVDDLVDSLK
As for B3, the results for the “binding to NgR expressing COS-7 cells (in words)” value in data set [5] and in data set [5] (listed as AP-hNogo-A (1055-1120)) were “selective binding” and “bound”, respectively.
